Source: article PMC5350102, “Efficient Binding of the NOS1AP C-Terminus to the nNOS PDZ Pocket Requires the Concerted Action of the PDZ Ligand Motif, the Internal ExF Site and Structural Integrity of an Independent Element” (Frontiers in Molecular Neuroscience, 2017)
Values joined by “and” are separate entries in the source; they are usually repeats but may differ in a detail not shown here. Equal values may be shown once. Where no end group is shown, it is not given here. fluorescein = fluorescein label at the peptide N-terminus

What was measured:
Conditions in all cases: both partners purified
GST-nNOS[1–155] = molecular target: T1, GST-nNOS[1–155] (human, UniProt P29475-1 1-155); assay: pull-down; solid-phase no-wash binding assay: 5 μl beads bound to 1 μg GST-fused nNOS protein (or GST for background) rotated with His-TAT-NOS1AP peptides for 1 h at 4°C; unbound removed by centrifugation in filter plates, no wash; bound peptide quantified by fluorescent immunoblot; GST background subtracted; 1-site quadratic fit
T1 construct: also called GST-fused nNOS protein

His-nNOS[1–155] [1] = molecular target: T2, His-nNOS[1–155] (human, UniProt P29475-1 1-155); assay: fluorescence polarisation; competition FP: 1 μM F-GDLV, 4 μM His-nNOS(1–155), increasing competitor; approximate Kc (dissociation constant of the competitor, affinity for the nNOS PDZ pocket) from the single-site competition formula
T2 construct: Two batches were used

His-nNOS[1–155] [2] = molecular target: T2, His-nNOS[1–155]; assay: fluorescence polarisation; increasing His-nNOS(1–155) added to 1 μM F-GDLV in 50 mM Tris pH 7.4, 100 mM NaCl, 1 mM EDTA, 0.1% BSA; one-site quadratic fit; triplicates from each of two nNOS batches
His-nNOS[1–155] [3] = molecular target: T2, His-nNOS[1–155]; assay: as above; remark: listed apart in the source

Binder	Kd (GST-nNOS[1–155])	Ki (His-nNOS[1–155] [1])	other results
His-TAT-NOS1AP[400–503], denatured (domain or fragment, human, UniProt O75052 400-503, looked up, also called denatured NOS1AP[400–503]; NOS1AP 400-503 His-TAT fusion, Denatured) HSPPLGAGLADFAHPAGSPLGRRDCLVKLECFRFLPPEDTPPPAQGEALLGGLELIKFRESGIASEYESNTDESEERDSWSQEELPRLLNVLQRQELGDGLDDE	5.3 µM	–	–
His-TAT-NOS1AP[400–503] E429A, denatured (domain or fragment, human, UniProt O75052 400-503, looked up, NOS1AP, human, residues 400-503 with E429A in the ExF motif) HSPPLGAGLADFAHPAGSPLGRRDCLVKLACFRFLPPEDTPPPAQGEALLGGLELIKFRESGIASEYESNTDESEERDSWSQEELPRLLNVLQRQELGDGLDDE	99 µM	–	–
NOS1AP[432–506] cleaved from GST (domain or fragment, human, UniProt O75052 432-506, looked up) RFLPPEDTPPPAQGEALLGGLELIKFRESGIASEYESNTDESEERDSWSQEELPRLLNVLQRQELGDGLDDEIAV	–	> 10 µM	–
H-DSLDDEIAV-OH (last 9 amino acids of rat/mouse NOS1AP; also called NOS1AP-9C; DSLDDEIAV (NOS1AP-9C); source: synthetic peptide, synthesized by Xigen AG (Lausanne, Switzerland)) [Peptide EIAV (NH2-DSLDDEIAV-COOH)]	–	> 300 µM	–
fluorescein-RRRRWGDLV (also called F-GLDV; source: synthetic peptide, bought: Genic Bio (Shanghai, China)) [F-GDLV (fluorescein-RRRRWGDLV)]	–	–	Kd (His-nNOS[1–155] [2]): 10.2 µM and 11.2 µM; Kd (His-nNOS[1–155] [3]): 10.7 µM
His-TAT-NOS1AP[400–506], denatured (domain or fragment, human, UniProt O75052 400-506, looked up, Same construct as m10, but prepared under denaturing conditions) HSPPLGAGLADFAHPAGSPLGRRDCLVKLECFRFLPPEDTPPPAQGEALLGGLELIKFRESGIASEYESNTDESEERDSWSQEELPRLLNVLQRQELGDGLDDEIAV	2.4 µM	–	–
NOS1AP[400–506] F431A cleaved from GST (domain or fragment, human, UniProt O75052 400-506, looked up) HSPPLGAGLADFAHPAGSPLGRRDCLVKLECARFLPPEDTPPPAQGEALLGGLELIKFRESGIASEYESNTDESEERDSWSQEELPRLLNVLQRQELGDGLDDEIAV	–	> 10 µM	–
H-RRRRWGDLV-OH (also called unlabelled GDLV; source: synthetic peptide, bought: Genic Bio (Shanghai, China)) [Peptide GDLV (NH2-RRRRWGDLV-COOH)]	–	10.7 µM	–
